One block for each binder: values may come before it. No end group written: not given here.
B1: ERK5 MAPK construct containing the N-terminal region of ERK5-(1–431) (domain or fragment)
chain: MAEPLKEEDGEDGSAEPPGPVKAEPAHTAASVAAKNLALLKARSFDVTFDVGDEYEIIETIGNGAYGVVSSARRRLTGQQVAIKKIPNAFDVVTNAKRTLRELKILKHFKHDNIIAIKDILRPTVPYGEFKSVYVVLDLMESDLHQIIHSSQPLTLEHVRYFLYQLLRGLKYMHSAQVIHRDLKPSNLLVNENCELKIGDFGMARGLCTSPAEHQYFMTEYVATRWYRAPELMLSLHEYTQAIDLWSVGCIFGEMLARRQLFPGKNYVHQLQLIMMVLGTPSPAVIQAVGAERVRAYIQSLPPRQPVPWETVYPGADRQALSLLGRMLRFEPSARISAAAALRHPFLAKYHDPDDEPDCAPPFDFAFDREALTRERIKEAIVAEIEDFHARREGIRQQIRFQPSLQPVASEPGCPDVEMPSPWAPSGDCAM

Key:
[1] = target: Full-length MKK5 (MKK5_FL) (human, UniProt Q13163 1-448); assay: fluorescence polarisation
[2] = target: B1; assay: pull-down
[3] = target: T1, MBP fusion of MKK5(PB1-D) (construct E, 16–130) (human, UniProt Q13163 16-130); assay: pull-down
T1 sequence: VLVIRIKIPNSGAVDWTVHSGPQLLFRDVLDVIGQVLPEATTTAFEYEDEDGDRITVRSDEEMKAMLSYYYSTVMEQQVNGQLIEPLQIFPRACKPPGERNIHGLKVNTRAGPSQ

[4] = target: ERK2 (human, UniProt P28482 1-360); assay: fluorescence polarisation
[5] = target: B1; assay: fluorescence polarisation
[6] = target: B1; assay: fluorescence polarisation; remark: listed apart in the source

Chain of ERK2 (P28482 whole entry): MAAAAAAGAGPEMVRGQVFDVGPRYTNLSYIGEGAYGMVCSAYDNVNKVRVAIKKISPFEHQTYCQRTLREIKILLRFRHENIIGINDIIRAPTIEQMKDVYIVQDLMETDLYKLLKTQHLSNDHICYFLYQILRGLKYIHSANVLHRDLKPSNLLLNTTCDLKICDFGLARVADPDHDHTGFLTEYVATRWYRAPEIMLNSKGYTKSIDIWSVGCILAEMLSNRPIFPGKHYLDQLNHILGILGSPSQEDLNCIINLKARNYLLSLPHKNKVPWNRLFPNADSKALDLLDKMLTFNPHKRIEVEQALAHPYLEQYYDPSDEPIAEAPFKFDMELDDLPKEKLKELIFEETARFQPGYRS

Binder: B1
Kd [1]: < 0.1 µM

B2: MBP fusion of MKK5 construct B (113–448) (domain or fragment, human, UniProt Q13163 113-448, looked up)
chain: GERNIHGLKVNTRAGPSQHSSPAVSDSLPSNSLKKSSAELKKILANGQMNEQDIRYRDTLGHGNGGTVYKAYHVPSGKILAVKVILLDITLELQKQIMSELEILYKCDSSYIIGFYGAFFVENRISICTEFMDGGSLDVYRKMPEHVLGRIAVAVVKGLTYLWSLKILHRDVKPSNMLVNTRGQVKLCDFGVSTQLVNSIAKTYVGTNAYMAPERISGEQYGIHSDVWSLGISFMELALGRFPYPQIQKNQGSLMPLQLLQCIVDEDSPVLPVGEFSEPFVHFITQCMRKQPKERPAPEELMGHPFIVQFNDGNAAVVSMWVCRALEERRSQQGPP
binding result [2]: binds

B3: GST-MEKK3(PB1) (MEKK3 PB1 domain, residues 42–126) (domain or fragment)
chain: QSDVRIKFEHNGERRIIAFSRPVKYEDVEHKVTTVFGQPLDLHYMNNELSILLKNQDDLDKAIDILDRSSSMKSLRILLLSQDRN
binding result [3]: binds

Continued, values first:

Kd [4]: > 100 µM
Kd [5]: 4.2 µM
Binder: ASKPPGERNIHGLKVNTRA [pepMKK5 (peptide with the linear D-motif of MKK5)]

binding result [6]: binds
Binder: tetramethylrhodamin-SRKPDLRVVIPPS [pepMEF2 (labeled MEF2A D-motif peptide)]

Source: article PMC3605678 (The Journal of Biological Chemistry, 2013)
